Source: patent publication US20190212291

Assays:
[1] = test system: PEG-T24-Q
[2] = test system: PEG-T54-Q
[3] = test system: SB14
[4] = test system: PEG-T2-Q
[5] = test system: PEG-T51-Q
[6] = test system: T1, PB2
T1 sequence: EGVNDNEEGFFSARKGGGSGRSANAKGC

[7] = test system: T2, PEG-T39-Q
T2 sequence: GGGSGRSANAKGKGC

[8] = test system: PEG-T38-Q
[9] = test system: PEG-T48-Q
[10] = test system: PEG-T56-Q
[11] = test system: PEG-T58-Q
[12] = test system: PEG-T1-Q
[13] = test system: PEG-T3-Q
[14] = test system: PEG-T7-Q
[15] = test system: PEG-T43-Q

Sequence of MMP9 (chain, as listed by the source): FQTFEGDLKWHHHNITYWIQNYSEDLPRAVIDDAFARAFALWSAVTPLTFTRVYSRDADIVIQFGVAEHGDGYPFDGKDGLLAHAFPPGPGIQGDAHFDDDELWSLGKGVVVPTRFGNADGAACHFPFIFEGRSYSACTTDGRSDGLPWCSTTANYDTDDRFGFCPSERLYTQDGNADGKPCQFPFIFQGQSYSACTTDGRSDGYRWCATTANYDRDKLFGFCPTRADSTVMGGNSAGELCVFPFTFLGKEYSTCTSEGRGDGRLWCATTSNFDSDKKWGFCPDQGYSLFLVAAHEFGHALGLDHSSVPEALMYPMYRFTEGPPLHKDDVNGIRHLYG
Sequence of HPN (chain, as listed by the source): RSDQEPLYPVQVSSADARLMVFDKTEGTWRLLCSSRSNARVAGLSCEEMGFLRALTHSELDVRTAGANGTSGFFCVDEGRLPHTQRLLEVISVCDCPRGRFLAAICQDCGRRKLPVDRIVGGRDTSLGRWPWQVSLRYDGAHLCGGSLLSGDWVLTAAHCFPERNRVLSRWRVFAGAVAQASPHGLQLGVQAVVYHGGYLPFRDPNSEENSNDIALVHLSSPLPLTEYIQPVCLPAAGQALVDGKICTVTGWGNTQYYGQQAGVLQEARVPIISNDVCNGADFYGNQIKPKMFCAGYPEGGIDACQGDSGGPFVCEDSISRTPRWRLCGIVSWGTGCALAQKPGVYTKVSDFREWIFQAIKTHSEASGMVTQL
Sequence of MMP3 (chain, as listed by the source): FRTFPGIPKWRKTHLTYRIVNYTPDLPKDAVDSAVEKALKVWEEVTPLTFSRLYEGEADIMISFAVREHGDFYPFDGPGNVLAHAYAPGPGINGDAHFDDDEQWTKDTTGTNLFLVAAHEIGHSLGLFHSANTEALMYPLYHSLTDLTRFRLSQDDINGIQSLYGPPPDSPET
Sequence of MMP10 (chain, as listed by the source): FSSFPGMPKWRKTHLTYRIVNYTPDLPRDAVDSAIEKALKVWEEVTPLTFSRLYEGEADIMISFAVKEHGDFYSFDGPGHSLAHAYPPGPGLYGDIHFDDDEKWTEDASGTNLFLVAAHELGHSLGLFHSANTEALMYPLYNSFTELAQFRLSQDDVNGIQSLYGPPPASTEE

## MMP13
[1]
  Top hit (cleavage of PEG-coupled FRET substrate by recombinant proteases): MMP13
  substrate cleavage: selectively cleaved by MMP13 and uPA
  substrate cleavage in vitro: in vitro, these substrates are cleaved by proteases overexpressed in PC3 cells, MMP13 and uPA
[2]
  Second hit (cleavage of PEG-coupled FRET substrate by recombinant proteases): MMP13
[3]
  substrate cleavage assay: MMP13 substrate, expressed by PC3

## KLK3
[4]
  Second hit (cleavage of PEG-coupled FRET substrate by recombinant proteases): KLK3
[5]
  Second hit (cleavage of PEG-coupled FRET substrate by recombinant proteases): KLK3

## uPA
[6]
  substrate cleavage assay: uPA substrate, expressed by PC3
[7]
  Top hit (cleavage of PEG-coupled FRET substrate by recombinant proteases): uPA
  substrate cleavage: selectively cleaved by MMP13 and uPA
  substrate cleavage in vitro: in vitro, these substrates are cleaved by proteases overexpressed in PC3 cells, MMP13 and uPA

## KLK2
[4]
  Top hit (cleavage of PEG-coupled FRET substrate by recombinant proteases): KLK2
[8]
  Top hit (cleavage of PEG-coupled FRET substrate by recombinant proteases): KLK2
[9]
  Second hit (cleavage of PEG-coupled FRET substrate by recombinant proteases): KLK2

## MMP10
[10]
  Top hit (cleavage of PEG-coupled FRET substrate by recombinant proteases): MMP10

## HPN
[9]
  Top hit (cleavage of PEG-coupled FRET substrate by recombinant proteases): HPN
[11]
  Top hit (cleavage of PEG-coupled FRET substrate by recombinant proteases): HPN

## MMP9
[12]
  Top hit (cleavage of PEG-coupled FRET substrate by recombinant proteases): MMP9
[13]
  Top hit (cleavage of PEG-coupled FRET substrate by recombinant proteases): MMP9
[14]
  Top hit (cleavage of PEG-coupled FRET substrate by recombinant proteases): MMP9

## MMP3
[15]
  Top hit (cleavage of PEG-coupled FRET substrate by recombinant proteases): MMP3
[10]
  Second hit (cleavage of PEG-coupled FRET substrate by recombinant proteases): MMP3
